# Starred links: 1 amine or outer side, 2 acyl side, 3 side chain; linkers in the order of their positions; H or OH if unused. Positions of bridges follow the written chain, without caps; N, C: chain ends. Non-standard residues stand in square brackets, D forms with d. *: point of attachment. pXylylene = c1cc(C[*:2])ccc1C[*:1]; Palmitoyl = CCCCCCCCCCCCCCCC(=O)*; tBuAla = CC(C)(C)C[C@H](N)C(=O)O; Cha = N[C@@H](CC1CCCCC1)C(=O)O; Suc = O=C(CCC(=O)[*:2])[*:1]; Abu = CC[C@H](N)C(=O)O; Pentanoyl = CCCCC(=O)*; B1 = not defined here
# B1: peptide 55 (peptide)
# peptide: Suc-ENYLRLIEELIRKAQEQQEKNEAALRGSGK(Palmitoyl)-NH2
# SMILES: CCCCCCCCCCCCCCCC(=O)NCCCC[C@H](NC(=O)CNC(=O)[C@H](CO)NC(=O)CNC(=O)[C@H](CCCNC(=N)N)NC(=O)[C@H](CC(C)C)NC(=O)[C@H](C)NC(=O)[C@H](C)NC(=O)[C@H](CCC(=O)O)NC(=O)[C@H](CC(N)=O)NC(=O)[C@H](CCCCN)NC(=O)[C@H](CCC(=O)O)NC(=O)[C@H](CCC(N)=O)NC(=O)[C@H](CCC(N)=O)NC(=O)[C@H](CCC(=O)O)NC(=O)[C@H](CCC(N)=O)NC(=O)[C@H](C)NC(=O)[C@H](CCCCN)NC(=O)[C@H](CCCNC(=N)N)NC(=O)[C@@H](NC(=O)[C@H](CC(C)C)NC(=O)[C@H](CCC(=O)O)NC(=O)[C@H](CCC(=O)O)NC(=O)[C@@H](NC(=O)[C@H](CC(C)C)NC(=O)[C@H](CCCNC(=N)N)NC(=O)[C@H](CC(C)C)NC(=O)[C@H](Cc1ccc(O)cc1)NC(=O)[C@H](CC(N)=O)NC(=O)[C@H](CCC(=O)O)NC(=O)CCC(=O)O)[C@@H](C)CC)[C@@H](C)CC)C(N)=O
# B2: peptide 50 (peptide)
# peptide: Ac-ECYLRCIEALIRAAQEQQEKNEAALR-NH2
# modifications: linker 2-6 via pXylylene
# SMILES: CC[C@H](C)[C@H](NC(=O)[C@H](CC(C)C)NC(=O)[C@H](C)NC(=O)[C@H](CCC(=O)O)NC(=O)[C@@H](NC(=O)[C@@H]1CSCc2ccc(cc2)CSC[C@H](NC(=O)[C@H](CCC(=O)O)NC(C)=O)C(=O)N[C@@H](Cc2ccc(O)cc2)C(=O)N[C@@H](CC(C)C)C(=O)N[C@@H](CCCNC(=N)N)C(=O)N1)[C@@H](C)CC)C(=O)N[C@@H](CCCNC(=N)N)C(=O)N[C@@H](C)C(=O)N[C@@H](C)C(=O)N[C@@H](CCC(N)=O)C(=O)N[C@@H](CCC(=O)O)C(=O)N[C@@H](CCC(N)=O)C(=O)N[C@@H](CCC(N)=O)C(=O)N[C@@H](CCC(=O)O)C(=O)N[C@@H](CCCCN)C(=O)N[C@@H](CC(N)=O)C(=O)N[C@@H](CCC(=O)O)C(=O)N[C@@H](C)C(=O)N[C@@H](C)C(=O)N[C@@H](CC(C)C)C(=O)N[C@@H](CCCNC(=N)N)C(N)=O
# B3: peptide 54 (peptide)
# peptide: Ac-ACYLACIEALIRAAQEQQEKNEAALL-NH2
# modifications: linker 2-6 via pXylylene
# SMILES: CC[C@H](C)[C@H](NC(=O)[C@H](CC(C)C)NC(=O)[C@H](C)NC(=O)[C@H](CCC(=O)O)NC(=O)[C@@H](NC(=O)[C@@H]1CSCc2ccc(cc2)CSC[C@H](NC(=O)[C@H](C)NC(C)=O)C(=O)N[C@@H](Cc2ccc(O)cc2)C(=O)N[C@@H](CC(C)C)C(=O)N[C@@H](C)C(=O)N1)[C@@H](C)CC)C(=O)N[C@@H](CCCNC(=N)N)C(=O)N[C@@H](C)C(=O)N[C@@H](C)C(=O)N[C@@H](CCC(N)=O)C(=O)N[C@@H](CCC(=O)O)C(=O)N[C@@H](CCC(N)=O)C(=O)N[C@@H](CCC(N)=O)C(=O)N[C@@H](CCC(=O)O)C(=O)N[C@@H](CCCCN)C(=O)N[C@@H](CC(N)=O)C(=O)N[C@@H](CCC(=O)O)C(=O)N[C@@H](C)C(=O)N[C@@H](C)C(=O)N[C@@H](CC(C)C)C(=O)N[C@@H](CC(C)C)C(N)=O
# B4: peptide 56 (peptide)
# peptide: Ac-ACYLACIEALIRAAQEQQEKNEAALR-NH2
# modifications: linker 2-6 via pXylylene
# SMILES: CC[C@H](C)[C@H](NC(=O)[C@H](CC(C)C)NC(=O)[C@H](C)NC(=O)[C@H](CCC(=O)O)NC(=O)[C@@H](NC(=O)[C@@H]1CSCc2ccc(cc2)CSC[C@H](NC(=O)[C@H](C)NC(C)=O)C(=O)N[C@@H](Cc2ccc(O)cc2)C(=O)N[C@@H](CC(C)C)C(=O)N[C@@H](C)C(=O)N1)[C@@H](C)CC)C(=O)N[C@@H](CCCNC(=N)N)C(=O)N[C@@H](C)C(=O)N[C@@H](C)C(=O)N[C@@H](CCC(N)=O)C(=O)N[C@@H](CCC(=O)O)C(=O)N[C@@H](CCC(N)=O)C(=O)N[C@@H](CCC(N)=O)C(=O)N[C@@H](CCC(=O)O)C(=O)N[C@@H](CCCCN)C(=O)N[C@@H](CC(N)=O)C(=O)N[C@@H](CCC(=O)O)C(=O)N[C@@H](C)C(=O)N[C@@H](C)C(=O)N[C@@H](CC(C)C)C(=O)N[C@@H](CCCNC(=N)N)C(N)=O
# B5: peptide 53 (peptide)
# peptide: Ac-ECYAACIEELIRKAQEQQEKNEAALR-NH2
# modifications: linker 2-6 via pXylylene
# SMILES: CC[C@H](C)[C@H](NC(=O)[C@@H]1CSCc2ccc(cc2)CSC[C@H](NC(=O)[C@H](CCC(=O)O)NC(C)=O)C(=O)N[C@@H](Cc2ccc(O)cc2)C(=O)N[C@@H](C)C(=O)N[C@@H](C)C(=O)N1)C(=O)N[C@@H](CCC(=O)O)C(=O)N[C@@H](CCC(=O)O)C(=O)N[C@@H](CC(C)C)C(=O)N[C@H](C(=O)N[C@@H](CCCNC(=N)N)C(=O)N[C@@H](CCCCN)C(=O)N[C@@H](C)C(=O)N[C@@H](CCC(N)=O)C(=O)N[C@@H](CCC(=O)O)C(=O)N[C@@H](CCC(N)=O)C(=O)N[C@@H](CCC(N)=O)C(=O)N[C@@H](CCC(=O)O)C(=O)N[C@@H](CCCCN)C(=O)N[C@@H](CC(N)=O)C(=O)N[C@@H](CCC(=O)O)C(=O)N[C@@H](C)C(=O)N[C@@H](C)C(=O)N[C@@H](CC(C)C)C(=O)N[C@@H](CCCNC(=N)N)C(N)=O)[C@@H](C)CC
# B6: peptide 51 (peptide)
# peptide: Ac-ACYLACIEALIRRAQEQQEKNEAALR-NH2
# modifications: linker 2-6 via pXylylene
# SMILES: CC[C@H](C)[C@H](NC(=O)[C@@H]1CSCc2ccc(cc2)CSC[C@H](NC(=O)[C@H](C)NC(C)=O)C(=O)N[C@@H](Cc2ccc(O)cc2)C(=O)N[C@@H](CC(C)C)C(=O)N[C@@H](C)C(=O)N1)C(=O)N[C@@H](CCC(=O)O)C(=O)N[C@@H](C)C(=O)N[C@@H](CC(C)C)C(=O)N[C@H](C(=O)N[C@@H](CCCNC(=N)N)C(=O)N[C@@H](CCCNC(=N)N)C(=O)N[C@@H](C)C(=O)N[C@@H](CCC(N)=O)C(=O)N[C@@H](CCC(=O)O)C(=O)N[C@@H](CCC(N)=O)C(=O)N[C@@H](CCC(N)=O)C(=O)N[C@@H](CCC(=O)O)C(=O)N[C@@H](CCCCN)C(=O)N[C@@H](CC(N)=O)C(=O)N[C@@H](CCC(=O)O)C(=O)N[C@@H](C)C(=O)N[C@@H](C)C(=O)N[C@@H](CC(C)C)C(=O)N[C@@H](CCCNC(=N)N)C(N)=O)[C@@H](C)CC
# B7: peptide 57 (peptide)
# peptide: Ac-ACYIACIEALIRAAQEQQEKNEAALR-NH2
# modifications: linker 2-6 via pXylylene
# SMILES: CC[C@H](C)[C@@H]1NC(=O)[C@H](Cc2ccc(O)cc2)NC(=O)[C@@H](NC(=O)[C@H](C)NC(C)=O)CSCc2ccc(cc2)CSC[C@@H](C(=O)N[C@H](C(=O)N[C@@H](CCC(=O)O)C(=O)N[C@@H](C)C(=O)N[C@@H](CC(C)C)C(=O)N[C@H](C(=O)N[C@@H](CCCNC(=N)N)C(=O)N[C@@H](C)C(=O)N[C@@H](C)C(=O)N[C@@H](CCC(N)=O)C(=O)N[C@@H](CCC(=O)O)C(=O)N[C@@H](CCC(N)=O)C(=O)N[C@@H](CCC(N)=O)C(=O)N[C@@H](CCC(=O)O)C(=O)N[C@@H](CCCCN)C(=O)N[C@@H](CC(N)=O)C(=O)N[C@@H](CCC(=O)O)C(=O)N[C@@H](C)C(=O)N[C@@H](C)C(=O)N[C@@H](CC(C)C)C(=O)N[C@@H](CCCNC(=N)N)C(N)=O)[C@@H](C)CC)[C@@H](C)CC)NC(=O)[C@H](C)NC1=O
# B8: peptide 52 (peptide)
# peptide: Pentanoyl-ENYLALIEELIRKAQEQQEKNEAALR-NH2
# SMILES: CCCCC(=O)N[C@@H](CCC(=O)O)C(=O)N[C@@H](CC(N)=O)C(=O)N[C@@H](Cc1ccc(O)cc1)C(=O)N[C@@H](CC(C)C)C(=O)N[C@@H](C)C(=O)N[C@@H](CC(C)C)C(=O)N[C@H](C(=O)N[C@@H](CCC(=O)O)C(=O)N[C@@H](CCC(=O)O)C(=O)N[C@@H](CC(C)C)C(=O)N[C@H](C(=O)N[C@@H](CCCNC(=N)N)C(=O)N[C@@H](CCCCN)C(=O)N[C@@H](C)C(=O)N[C@@H](CCC(N)=O)C(=O)N[C@@H](CCC(=O)O)C(=O)N[C@@H](CCC(N)=O)C(=O)N[C@@H](CCC(N)=O)C(=O)N[C@@H](CCC(=O)O)C(=O)N[C@@H](CCCCN)C(=O)N[C@@H](CC(N)=O)C(=O)N[C@@H](CCC(=O)O)C(=O)N[C@@H](C)C(=O)N[C@@H](C)C(=O)N[C@@H](CC(C)C)C(=O)N[C@@H](CCCNC(=N)N)C(N)=O)[C@@H](C)CC)[C@@H](C)CC
# B9: peptide 1 (peptide)
# peptide: Suc-ANYLALIEALIRAAQEQQEKNEAAL-NH2
# SMILES: CC[C@H](C)[C@H](NC(=O)[C@H](CC(C)C)NC(=O)[C@H](C)NC(=O)[C@H](CCC(=O)O)NC(=O)[C@@H](NC(=O)[C@H](CC(C)C)NC(=O)[C@H](C)NC(=O)[C@H](CC(C)C)NC(=O)[C@H](Cc1ccc(O)cc1)NC(=O)[C@H](CC(N)=O)NC(=O)[C@H](C)NC(=O)CCC(=O)O)[C@@H](C)CC)C(=O)N[C@@H](CCCNC(=N)N)C(=O)N[C@@H](C)C(=O)N[C@@H](C)C(=O)N[C@@H](CCC(N)=O)C(=O)N[C@@H](CCC(=O)O)C(=O)N[C@@H](CCC(N)=O)C(=O)N[C@@H](CCC(N)=O)C(=O)N[C@@H](CCC(=O)O)C(=O)N[C@@H](CCCCN)C(=O)N[C@@H](CC(N)=O)C(=O)N[C@@H](CCC(=O)O)C(=O)N[C@@H](C)C(=O)N[C@@H](C)C(=O)N[C@@H](CC(C)C)C(N)=O
# Molecular target: gp41 of HIV-1 strain HXB2D with mutation V38A (HIV-1 strain HXB2D, UniProt P04578)
# Experiment: cell-based or functional assay
row,Binder,"fold change in EC50, HIV-HXB2D V38A mutant [fold]"
1,B1,1
2,B2,12
3,Ac-ACY[Cha]ACIEALIRAAQEQQEKNEAALR-NH2 (linker 2-6 via B1; reading uncertain) [peptide 59],18
4,B3,31
5,B4,61
6,B5,34
7,Ac-ACY[tBuAla]ACIEALIRAAQEQQEKNEAALR-NH2 (linker 2-6 via B1; reading uncertain) [peptide 60],18
8,Suc-ACY[Abu]ACIEALIRAAQEQQEKNEAALR-NH2 (linker 2-6 via B1; reading uncertain) [peptide 49],33
9,B6,10
10,B7,23
11,Ac-ANYAALIEALIRAAQEQQEKNEAALR-NH2 [peptide 2],61
12,B8,5
13,B9,57
